Measured values reported in US20210253688A1 (UCB, published 2021).
Values belong to the binder of their own block, whether it stands above or below them.

B4: human Gremlin-1 (full length; recombinant human Gremlin 1) (ligand)
chain: KKKGSQGAIPPPDKAQHNDSEQTQSPQQPGSRNRGRGQGRGTAMPGEEVLESSQEALHVTERKYLKRDWCKTQPLKQTIHEEGCNSRTIINRFCYGQCNSFYIPRHIRKEEGSFQSCSFCKPKKFTTMMVTLNCPELQPPTKKKRVTRVKQCRCISIDLD

Columns and labels:
[1] = target: T1, BMP4/7 heterodimer (human, UniProt P12644 293-408; P18075 293-431); test: cell-based or functional assay
T1 sequence (looked up) 1: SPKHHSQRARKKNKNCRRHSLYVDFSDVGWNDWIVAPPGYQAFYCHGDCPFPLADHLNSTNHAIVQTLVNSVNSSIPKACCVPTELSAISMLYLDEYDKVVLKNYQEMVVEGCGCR
T1 sequence (looked up) 2: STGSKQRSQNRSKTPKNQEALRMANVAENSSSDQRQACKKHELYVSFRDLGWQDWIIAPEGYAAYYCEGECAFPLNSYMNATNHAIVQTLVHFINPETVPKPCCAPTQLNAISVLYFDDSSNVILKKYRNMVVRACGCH

[2] = target: B4; test: cell-based or functional assay
[3] = target: T2, mouse Gremlin (mouse, UniProt O70326 25-184); test: cell-based or functional assay
T2 sequence (looked up): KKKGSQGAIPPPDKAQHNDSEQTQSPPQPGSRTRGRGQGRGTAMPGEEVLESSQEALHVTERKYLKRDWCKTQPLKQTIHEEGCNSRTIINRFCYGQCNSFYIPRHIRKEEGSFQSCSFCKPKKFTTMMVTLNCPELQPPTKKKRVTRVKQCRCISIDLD

[4] = target: B4; test: SPR, Biacore T200, 25 °C; mIgG captured on anti-mouse Fc, recombinant human Gremlin 1 titrated from 5 nM; average of 5 determinations
Experimental: The affinity of anti-Gremlin mIgG for human Gremlin 1 was determined by biamolecular interaction analysis using surface plasmon resonance (SPR) technology on a Biacore T200 system, GE Healthcare Bio-Sciences AB. Anti-Gremlin mIgG was captured by an immobilised anti-mouse Fc surface and Gremlin 1 was titrated over the captured mIgG. The capture ligand (affinipure F(ab′)₂ fragment of goat anti-mouse IgG, Fc fragment specific, 115-006-071, Jackson ImmunoResearch Inc.) was immobilised at 50 μg/ml in 10 mM NaAc, pH 5.0 on flow cell 2 of a CM4 Sensor Chip via amine coupling chemistry, using 600 s activation and deactivation injections, to a level of ˜1600 response units (RU). HBS-EP+ buffer (0.01 M HEPES pH 7.4, 0.15 M NaCl, 3 mM EDTA, 0.05% Surfactant P20) was used as the running buffer with a flow rate of 10 μ1/min. A reference surface was prepared on flow cell 1 by activating and deactivating the surface as for flow cell 2 but omitting the capture ligand.
The assay buffer was HBS-EP+ plus an extra 150 mM NaCl to give a final NaCl concentration of 300 mM plus 1% CMD40. A 60 s injection of anti-Gremlin mIgG (at 5 μg/ml in running buffer) was passed over flow cells 1 and 2 to give a capture level of approximately 100 RU on the immobilised anti-mouse IgG, Fc surface. […]
The kinetic data was determined using Biacore T200 evaluation software.

B1: truncated human Gremlin-1 (E. coli expressed, refolded, N-terminal 6His-TEV tag) (ligand)
chain: MGSSHHHHHHSSGENLYFQGSAMPGEEVLESSQEALHVTERKYLKRDWCKTQPLKQTIHEEGCNSRTIINRFCYGQCNSFYIPRHIRKEEGSFQSCSFCKPKKFTTMMVTLNCPELQPPTKKKRVTRVKQCRCISIDLD
IC50, Hek-Id1 reporter gene assay, geometric mean (N=2) [1]: 1.7 nM

Binder: B4
IC50, Hek-Id1 reporter gene assay, geometric mean (N=2) [1]: 1.6 nM

The remaining lines, values ahead:

IC50, Hek-Id1 reporter gene assay, restoration of BMP signalling [2]: 1.3 nM | IC50, Hek-Id1 reporter gene assay, restoration of BMP signalling [3]: 0.2 nM
B2: Ab7326 (format in the assay not stated) (antibody, V domains shown)
VH: QVQLVESGAEVKKPGATVKISCKVSGYTFTDYYMHWVQQAPGKGLEWMGLVDPEDGETIYAEKFQGRVTITADTSTDTAYMELSSLRSEDTAVYYCATDARGSGSYYPNHFDYWGQGTLVTVSS
VL: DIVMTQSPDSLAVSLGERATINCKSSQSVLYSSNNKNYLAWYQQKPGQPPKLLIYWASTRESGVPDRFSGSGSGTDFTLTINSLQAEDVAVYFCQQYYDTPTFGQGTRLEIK

Kd [4]: < 0.1 nM
B3: Ab7326 mouse full length IgG1 (antibody, V domains shown)
VH: QVQLVESGAEVKKPGATVKISCKVSGYTFTDYYMHWVQQAPGKGLEWMGLVDPEDGETIYAEKFQGRVTITADTSTDTAYMELSSLRSEDTAVYYCATDARGSGSYYPNHFDYWGQGTLVTVSS
VL: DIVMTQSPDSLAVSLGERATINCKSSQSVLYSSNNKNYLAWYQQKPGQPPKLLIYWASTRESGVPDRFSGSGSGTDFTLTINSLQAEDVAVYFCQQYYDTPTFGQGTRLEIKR
notes: also called anti-Gremlin mIgG; UCB Ab7326 mouse IgG1
